Test results as given in publication doi:10.1101/2021.05.25.445586.
Read-outs that look alike come from different tables or passages of the source.

Legend:
[1] = biological target: mouse WT-RELN (Reelin), full-length (mouse) (UniProt Q60841); test: non-reducing SDS-PAGE with immunoblot
[2] = biological target: mouse WT-RELN (Reelin), full-length (mouse) (UniProt Q60841); test: non-reducing SDS-PAGE with immunoblot; remark: listed apart in the source

stoichiometry N [1]: 2 | stoichiometry N [2]: 2
Substance: mouse WT-RELN (Reelin), full-length, Q60841 27-3461
